From the supplement of paper PMC9732359
± gives the uncertainty stated by the source.

Assay: protein stability index of a GFP-peptide fusion (yeast GPS) (PSI 1-4); higher = more stable; sorted into four equal gates, so the index is relative within each strain
Method in brief: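 Mid-log yeast cultures in leucine-free medium, carrying a pooled plasmid library, were sorted into four equal gates by their GFP/Cherry fluorescence ratio. Each plasmid expressed Cherry along with GFP fused upstream of a tiled 17-residue yeast protein peptide. Plasmids recovered from each gate were PCR-amplified and Illumina-sequenced, with reads assigned to strains by barcodes. The protein stability index was obtained by summing each gate's read frequency weighted by its gate number.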

Row | Sequence | protein stability index (doa10∆) | protein stability index (pdr5∆) | protein stability index (san1∆) | protein stability index (ubr1∆)
1 | LLEISCKQWEISNMLKK [CSI1] | 1.5 ± 0.052 | 1.58 ± 0.048 | 1.75 ± 0.077 | 1.5 ± 0.046
2 | KYFTESDIPVSENVFEG [SSN3] | 3.06 ± 0.11 | 3.25 ± 0.098 | 3.1 ± 0.094 | 3.06 ± 0.073
3 | RLWHTLKYYQDLKNTRM [SNF5] | 1.77 ± 0.057 | 2.02 ± 0.048 | 2.01 ± 0.06 | 1.7 ± 0.051
4 | NNKIITLVKGPKEPRLK [SKI6] | 2.91 ± 0.2 | 2.86 ± 0.16 | – | 3.14 ± 0.081
5 | YFPEGYNNKVGVAASQG [SIR2] | 1.64 ± 0.055 | 2.03 ± 0.063 | 2.04 ± 0.16 | 1.81 ± 0.062
6 | MKATSNTLEEFEHGRTP [FAS2] | 2.8 ± 0.08 | 2.56 ± 0.16 | 1.38 ± 0.15 | 3.66 ± 0.12
7 | NKSLKYVIHGIELLSDL [LIN1] | 2.81 ± 0.093 | 2.94 ± 0.096 | 2.92 ± 0.075 | 2.87 ± 0.067
8 | KLLLLNTSAIQETASPL [YIL149C/MLP2] | 2.33 ± 0.13 | 2.42 ± 0.21 | – | 2.56 ± 0.088
9 | TMMANFEEWIKMATDNK [BRN1] | 3.19 ± 0.12 | 3.16 ± 0.11 | 3.08 ± 0.1 | 3.35 ± 0.1
10 | GQLVELYVPRKCSATNR [RPS21A] | 2.46 ± 0.2 | 1.32 ± 0.19 | 1.13 ± 0.22 | 1.38 ± 0.069
11 | IQNDEEYDTPALFFDPS [PRP8] | 2.76 ± 0.073 | 3.05 ± 0.056 | 2.73 ± 0.085 | 2.86 ± 0.071
12 | KIQASDVNIIGKDRIAI [RPO31] | 2.82 ± 0.11 | 3.05 ± 0.098 | 2.87 ± 0.087 | 3.35 ± 0.081
13 | LEETRTTIGDTTDKNTT [BRN1] | 3.2 ± 0.071 | 3.27 ± 0.059 | 3.04 ± 0.055 | 3.17 ± 0.057
14 | KQIIVTRKAMLDPLEVH [PRP8] | 3.11 ± 0.094 | 3.13 ± 0.071 | 3.16 ± 0.062 | 3.05 ± 0.055
15 | KNKSGKIFVETKFSKLI [FAS1] | 2.33 ± 0.072 | 2.69 ± 0.076 | 2.3 ± 0.16 | 1.84 ± 0.077
16 | VTTFLNWCAEPEHDERK [CYT1] | 3.41 ± 0.089 | 3.39 ± 0.092 | 3.08 ± 0.18 | 3.15 ± 0.077
17 | LIECLLSKVAALSGNEG [RPB2] | 1.47 ± 0.079 | 1.74 ± 0.098 | 1.89 ± 0.11 | 1.27 ± 0.08
18 | YPKLTLDFQTNKRLCDE [RPS17A] | 3.11 ± 0.073 | 3.06 ± 0.064 | 3.06 ± 0.044 | 3.23 ± 0.059
19 | LNEFFTRELAEEGYSGV [RPS3] | 2.5 ± 0.22 | 1.82 ± 0.12 | 1.44 ± 0.15 | 1.68 ± 0.11
20 | LMDKCLPKVRIRTRRAA [DIS3] | 1.86 ± 0.06 | 1.34 ± 0.048 | 1.42 ± 0.085 | 1.5 ± 0.039
21 | MAKLNECPLDPGGYFIV [RET1] | 2.87 ± 0.11 | 3.28 ± 0.091 | 2.83 ± 0.086 | 3.23 ± 0.099
22 | DVTALLEQGFKVVSAKE [YCS4] | 2.48 ± 0.12 | 1.68 ± 0.077 | 2.9 ± 0.098 | 3.37 ± 0.16
23 | PTIEEDLTRVYKAISAQ [FAS2] | 2.22 ± 0.051 | 2.21 ± 0.041 | 2.75 ± 0.056 | 2.32 ± 0.042
24 | YGLFLKYHKEQFIKSNF [SRB8] | 2.15 ± 0.067 | 2.29 ± 0.045 | 1.97 ± 0.069 | 2.36 ± 0.054
25 | QAAAKPSLEKSSFTFGS [YLR335W/NUP2] | 3.04 ± 0.1 | 2.97 ± 0.1 | 2.97 ± 0.18 | 2.73 ± 0.075
26 | LHVPNLQPPKTSSRGRD [SMC4] | 2.44 ± 0.044 | 2.52 ± 0.043 | 2.29 ± 0.054 | 2.18 ± 0.039
27 | KNYSRPSTAIHTSPHQP [SIR4] | 2.86 ± 0.045 | 2.72 ± 0.044 | 2.65 ± 0.053 | 2.72 ± 0.044

Row | Sequence | protein stability index (doa10∆) | protein stability index (pdr5∆) | protein stability index (san1∆) | protein stability index (ubr1∆)
28 | MRQQSKELQQLQKQILT [SMC1] | 3.32 ± 0.13 | 3.05 ± 0.074 | 3.29 ± 0.039 | 3.17 ± 0.049
29 | QQQQQQQQQQQQQQQQQ [GAL11] | 2.57 ± 0.032 | 2.78 ± 0.028 | 2.661 ± 0.026 | 2.903 ± 0.023
30 | MENEFFKVQELLHSKPS [NAS6] | 2.2 ± 0.14 | 2.02 ± 0.082 | 2.68 ± 0.14 | 2.3 ± 0.085
31 | VRTDTTYPAGFMDVITL [RPS4A] | 2.37 ± 0.11 | 2.57 ± 0.1 | 2.92 ± 0.1 | 2.78 ± 0.098
32 | IPPLNKSLAMEHKSQVV [CSN12] | 1.26 ± 0.063 | 1.63 ± 0.078 | 1.49 ± 0.12 | 1.35 ± 0.071
33 | DDKLAYIRVNHADKDTF [POP8] | 2.9 ± 0.059 | 2.58 ± 0.059 | 2.72 ± 0.063 | 2.62 ± 0.049
34 | DDESPRFVMPNQLLAAL [RRP6] | 1.98 ± 0.048 | 2.02 ± 0.052 | 1.88 ± 0.069 | 2.18 ± 0.042
35 | EIIGGGSKSASKQTPQP [ISW2] | 2.95 ± 0.081 | 3.08 ± 0.092 | 2.97 ± 0.068 | 2.96 ± 0.06
36 | KCNDGVVFAVEKLITSK [PRE10] | – | – | 2.87 ± 0.22 | –
37 | EKSQEVEYVDPTVNRVP [RPN7] | – | – | – | 3.74 ± 0.27
38 | DPHSASLINSHLKILAS [RPC82] | 2.15 ± 0.22 | 1.38 ± 0.12 | 1.38 ± 0.19 | 1.23 ± 0.059
39 | SLGHQTSLITAVYGPRS [MTR3] | 2.54 ± 0.052 | 2.24 ± 0.056 | 2.63 ± 0.061 | 1.81 ± 0.053
40 | QSQPIANQSATSTPPPP [SNF5] | 2.82 ± 0.044 | 2.66 ± 0.037 | 2.61 ± 0.038 | 2.63 ± 0.034
41 | SILESSMFLRIDYSNSQ [RGR1] | 2.42 ± 0.083 | 2.14 ± 0.064 | 1.59 ± 0.095 | 2.41 ± 0.063
42 | MVVQNSPVSSVHTANFS [MED2] | 2.12 ± 0.1 | 2.67 ± 0.075 | 2.01 ± 0.099 | 2.75 ± 0.054
43 | KAEKTLKSTKHSISEAE [SMC4] | 2.57 ± 0.068 | 1.99 ± 0.058 | 1.92 ± 0.063 | 2.5 ± 0.044
44 | KVMNNSFKLCTLLIAIR [YML103C/NUP188] | 1.47 ± 0.063 | 1.69 ± 0.087 | 1.96 ± 0.15 | 1.63 ± 0.09
45 | PGTGKTLLARAVAHHTD [RPT6] | 1.78 ± 0.05 | 2.76 ± 0.06 | 1.53 ± 0.11 | 1.49 ± 0.057
46 | QPVLEKPLKKGSADIGA [SIR4] | 3.16 ± 0.078 | 3.1 ± 0.061 | 3.08 ± 0.042 | 2.94 ± 0.055
47 | REIVMPAHTKYMLIEEA [ITC1] | 3.2 ± 0.1 | 3.42 ± 0.1 | 3.03 ± 0.071 | 3.31 ± 0.13
48 | PDSCNMQEKAAHIAKNL [YCS4] | 2.15 ± 0.15 | 1.55 ± 0.2 | – | 1.47 ± 0.093
49 | IIQGRKNFDMLNSMEKD [PCI8] | 2.63 ± 0.083 | 2.77 ± 0.074 | 2.95 ± 0.046 | 2.71 ± 0.047
50 | LGASFGQQQQQSQTNAF [YGL172W/NUP49] | 2.09 ± 0.11 | 2.75 ± 0.075 | 2.07 ± 0.1 | 2.19 ± 0.075
51 | APDSEYLCFILSTRAGG [SNF2] | 1.97 ± 0.055 | 1.97 ± 0.058 | 2.01 ± 0.063 | 1.93 ± 0.041
52 | FCRDCNNMLYPREDKEN [RPB9] | 3.11 ± 0.083 | 3.11 ± 0.076 | 2.9 ± 0.064 | 3.08 ± 0.061
53 | LSSLKSFAIYSSTIDAP [SRB8] | 1.71 ± 0.038 | 1.57 ± 0.034 | 1.83 ± 0.064 | 1.73 ± 0.038
